Test results published in article doi:10.1101/2025.05.22.655451.

Target: HA N-terminally tagged C99 (APP C-terminal fragment C99) (UniProt P05067)
Assay: proximity ligation

Chain of HA N-terminally tagged C99 (APP C-terminal fragment C99) (P05067 672-770): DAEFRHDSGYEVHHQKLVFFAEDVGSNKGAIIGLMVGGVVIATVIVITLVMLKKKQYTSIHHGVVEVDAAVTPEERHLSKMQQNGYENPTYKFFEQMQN

Substance: Chimera of the TM of MT1-MMP and the IC of MT5-MMP
- PLA+ spots per cell (PLA+ spots per cell): 25

Substance: MT5-MMP TM/IC with alanine substitutions of the C-terminal PDZ-binding EWV motif (domain or fragment)
- PLA+ spots per cell (PLA+ spots per cell): 21

Substance: MT5-MMP TM/IC (transmembrane and intracellular domains, extracellular domains depleted) (from UniProt Q9Y5R2 53-645) (domain or fragment)
- PLA+ spots per cell (PLA+ spots per cell): 25
